Among the data in paper PMC12529927, “Functional microRNA targeting without seed pairing” are binding result and Kd values, retold here.

Series [1] concerns the target T1, AGO2 (loaded with guide RNA) (Homo sapiens, UniProt Q9UKV8 1-859). As to the kind of experiment: filter binding; Kd printed only in figure; similar to m11_23; 18 mM HEPES pH 7.4, 100 mM K-acetate, 1 mM Mg-acetate, 0.01% IGEPAL, 0.01 mg/mL yeast tRNA, 5 mM DTT, BSA, glycerol, 37 C, 4 h, 1-5 pM target; kinetics with 10. As to conditions: protein: recombinant, tags: 3xFLAG-SUMOEu1 (removed by SENPEuB cleavage), label: 32P target, seed g2-8 paired.

Series [2] concerns the target T1, AGO2 (loaded with guide RNA). Kind of series: filter binding; not above no-site control; 18 mM HEPES pH 7.4, 100 mM K-acetate, 1 mM Mg-acetate, 0.01% IGEPAL, 0.01 mg/mL yeast tRNA, 5 mM DTT, BSA, glycerol, 37 C, 4 h, 1-5 pM target; kinetics with 10. As to conditions: protein: recombinant, tags: 3xFLAG-SUMOEu1 (removed by SENPEuB cleavage), label: 32P target.
For series [3] the target is unchanged. As to the kind of experiment: filter binding; range over four guides; 18 mM HEPES pH 7.4, 100 mM K-acetate, 1 mM Mg-acetate, 0.01% IGEPAL, 0.01 mg/mL yeast tRNA, 5 mM DTT, BSA, glycerol, 37 C, 4 h, 1-5 pM target; kinetics with 10. As to conditions: protein: recombinant, tags: 3xFLAG-SUMOEu1 (removed by SENPEuB cleavage).
For series [4], the target named is AGO2 D669A (loaded with guide RNA) (Homo sapiens, UniProt Q9UKV8 1-859, D669A). As to the kind of experiment: hydroxyl radical footprinting; guide 3' region more accessible; 18 mM HEPES pH 7.4, 100 mM K-acetate, 1 mM Mg-acetate, 0.01% IGEPAL, 0.01 mg/mL yeast tRNA, 5 mM DTT, BSA, glycerol, 37 C, 4 h, 1-5 pM target; kinetics with 10. As to conditions: protein: recombinant, tags: 3xFLAG-SUMOEu1.
Chain of AGO2 D669A (loaded with guide RNA) (Q9UKV8 whole entry D669A): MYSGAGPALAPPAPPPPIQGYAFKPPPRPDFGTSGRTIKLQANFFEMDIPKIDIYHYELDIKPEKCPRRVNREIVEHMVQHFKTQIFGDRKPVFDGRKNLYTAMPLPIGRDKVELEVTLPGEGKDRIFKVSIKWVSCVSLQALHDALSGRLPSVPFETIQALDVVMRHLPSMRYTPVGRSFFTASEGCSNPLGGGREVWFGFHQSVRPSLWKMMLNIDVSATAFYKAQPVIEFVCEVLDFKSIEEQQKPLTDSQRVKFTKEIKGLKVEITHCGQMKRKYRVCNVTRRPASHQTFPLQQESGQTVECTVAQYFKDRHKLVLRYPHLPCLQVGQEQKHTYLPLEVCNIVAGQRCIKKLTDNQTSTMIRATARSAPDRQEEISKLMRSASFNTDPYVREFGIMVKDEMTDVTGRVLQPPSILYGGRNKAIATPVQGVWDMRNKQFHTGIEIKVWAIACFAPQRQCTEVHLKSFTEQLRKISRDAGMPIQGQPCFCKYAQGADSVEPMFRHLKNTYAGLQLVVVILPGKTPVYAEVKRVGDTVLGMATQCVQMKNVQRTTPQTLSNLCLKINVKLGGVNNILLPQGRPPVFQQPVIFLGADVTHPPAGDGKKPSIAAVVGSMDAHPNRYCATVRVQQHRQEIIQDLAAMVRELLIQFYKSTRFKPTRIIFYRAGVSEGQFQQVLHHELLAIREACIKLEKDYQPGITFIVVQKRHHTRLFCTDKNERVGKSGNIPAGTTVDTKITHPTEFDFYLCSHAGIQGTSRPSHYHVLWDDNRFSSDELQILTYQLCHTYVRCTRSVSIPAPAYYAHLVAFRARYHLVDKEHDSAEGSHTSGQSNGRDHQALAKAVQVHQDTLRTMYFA

Series [5] addresses T1, AGO2 (loaded with guide RNA). Kind of series: filter binding; upper bound, ~5 pM; 18 mM HEPES pH 7.4, 100 mM K-acetate, 1 mM Mg-acetate, 0.01% IGEPAL, 0.01 mg/mL yeast tRNA, 5 mM DTT, BSA, glycerol, 37 C, 4 h, 1-5 pM target; kinetics with 10. As to conditions: protein: recombinant, tags: 3xFLAG-SUMOEu1 (removed by SENPEuB cleavage), label: 32P target, offset +2.
Series [6] shares this target. Kind of series: filter binding; no boost over m11_23; 18 mM HEPES pH 7.4, 100 mM K-acetate, 1 mM Mg-acetate, 0.01% IGEPAL, 0.01 mg/mL yeast tRNA, 5 mM DTT, BSA, glycerol, 37 C, 4 h, 1-5 pM target; kinetics with 10. As to conditions: protein: recombinant, tags: 3xFLAG-SUMOEu1 (removed by SENPEuB cleavage), label: 32P target, offset +2.
Series [7] shares this target. Kind of series: filter binding; 18 mM HEPES pH 7.4, 100 mM K-acetate, 1 mM Mg-acetate, 0.01% IGEPAL, 0.01 mg/mL yeast tRNA, 5 mM DTT, BSA, glycerol, 37 C, 4 h, 1-5 pM target; kinetics with 10. As to conditions: protein: recombinant, tags: 3xFLAG-SUMOEu1 (removed by SENPEuB cleavage).
Series [8] has the same target. Kind of series: filter binding; Kd printed only in figure; similar to m9_22; 18 mM HEPES pH 7.4, 100 mM K-acetate, 1 mM Mg-acetate, 0.01% IGEPAL, 0.01 mg/mL yeast tRNA, 5 mM DTT, BSA, glycerol, 37 C, 4 h, 1-5 pM target; kinetics with 10. As to conditions: protein: recombinant, tags: 3xFLAG-SUMOEu1 (removed by SENPEuB cleavage), label: 32P target, seed g2-8 paired.
Setting [9] is: label: 32P target, g13-22 paired.
The mark [10] stands for this setting: label: 32P target, complementary to g9-19.

Residue numbers refer to the chain shown, from its start.

T1 sequence (Q9UKV8 whole entry): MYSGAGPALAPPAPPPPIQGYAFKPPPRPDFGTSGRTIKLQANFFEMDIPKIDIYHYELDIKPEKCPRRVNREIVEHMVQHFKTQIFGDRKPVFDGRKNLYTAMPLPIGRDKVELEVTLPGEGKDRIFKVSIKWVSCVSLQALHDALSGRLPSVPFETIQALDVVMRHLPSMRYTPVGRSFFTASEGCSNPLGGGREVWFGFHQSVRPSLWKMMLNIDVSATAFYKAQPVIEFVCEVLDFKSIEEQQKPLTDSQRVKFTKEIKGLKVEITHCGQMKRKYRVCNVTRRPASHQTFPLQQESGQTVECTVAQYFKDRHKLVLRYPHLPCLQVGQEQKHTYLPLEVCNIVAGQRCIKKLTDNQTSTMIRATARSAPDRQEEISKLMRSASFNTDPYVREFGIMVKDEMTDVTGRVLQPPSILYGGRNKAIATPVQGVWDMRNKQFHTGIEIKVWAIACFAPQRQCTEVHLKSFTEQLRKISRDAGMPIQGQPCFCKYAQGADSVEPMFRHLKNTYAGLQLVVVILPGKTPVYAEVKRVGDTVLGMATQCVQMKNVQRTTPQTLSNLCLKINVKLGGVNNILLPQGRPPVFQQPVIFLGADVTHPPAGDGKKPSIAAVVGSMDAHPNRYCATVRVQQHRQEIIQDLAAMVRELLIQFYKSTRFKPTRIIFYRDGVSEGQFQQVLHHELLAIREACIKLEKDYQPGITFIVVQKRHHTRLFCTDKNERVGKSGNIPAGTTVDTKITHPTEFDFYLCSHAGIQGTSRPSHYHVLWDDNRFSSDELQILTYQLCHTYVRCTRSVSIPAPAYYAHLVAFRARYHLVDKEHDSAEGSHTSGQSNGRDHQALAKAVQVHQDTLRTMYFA

B1: miR-155 wt / 7mer-m8 (mixed)
RNA 1: UUAAUGCUAAUCGUGAUAGGGGU
RNA 2: UUUUUUUUUAAAGCAUUAUUUUUU
modifications: 5'-phosphate guide
Consider B1, for which, in series [1], the binding result is “binds”.

B2: miR-155 mut / 7mer-m8 (mixed)
RNA 1: UUCGUGCUAAUCGUGAUAGGGGU
RNA 2: UUUUUUUUUAAAGCACGAUUUUUU
modifications: 5'-phosphate guide
As to B2, the binding result in series [1] is on record as “binds”.

B3: miR-155 mut / m13_20 (mixed)
RNA 1: UUCGUGCUAAUCGUGAUAGGGGU
RNA 2: UUUUUUUCCUAUCACUUUUUUUUUUUUUU
modifications: 5'-phosphate guide
In the case of B3, the binding result in series [2] (g13-20 paired) was “no binding”.

B4: miR-155 wt / m13_22 (mixed)
RNA 1: UUAAUGCUAAUCGUGAUAGGGGU
RNA 2: UUUUUUCCCCUAUCACUUUUUUUUUUUUUUUU
modifications: 5'-phosphate guide
A word on the Kd: it is the equilibrium constant for the complex coming apart. Regarding B4, the Kd in series [3] (setting [9]) was ~0.205 nM.

B5: miR-155 mut / m13_22 (mixed)
RNA 1: UUCGUGCUAAUCGUGAUAGGGGU
RNA 2: B4 RNA 2
modifications: 5'-phosphate guide
Regarding B5, in series [3] (setting [9]), the Kd is ~0.205 nM.

B6: miR-124 wt / m9_22 (mixed)
RNA 1: UAAGGCACGCGGUGAAUGCCAA
RNA 2: UUUUUUUUGGCAUUCACCGCUUUUUUUUUUUUUUUU
modifications: 5'-phosphate guide
B6: in series [3] (complementary to g9-22), the Kd is ~0.0265 nM. For the same molecule, in series [4] (guide:target, complementary to g9-22), the binding result is on record as “binds”.

B7: miR-124 mut / m9_22 (mixed)
RNA 1: UCUGGCUCGCGGUGAAUGCCAA
RNA 2: B6 RNA 2
modifications: 5'-phosphate guide
As for B7, in series [3] (label: 32P target, complementary to g9-22), the Kd was ~0.0265 nM.

B8: miR-155 wt / m13_20 (mixed)
RNA 1: UUAAUGCUAAUCGUGAUAGGGGU
RNA 2: UUUUUUUCCUAUCACUUUUUUUUUUUUUU
modifications: 5'-phosphate guide
B8: the binding result in series [2] (g13-20 paired) was “no binding”.

B9: miR-124 wt / m11_18 (mixed)
RNA 1: UAAGGCACGCGGUGAAUGCCAA
RNA 2: UUUUUUUUCAUUCACCUUUUUUUUUUUU
modifications: 5'-phosphate guide
For B9, the binding result in series [2] (g11-18 paired) was “no binding”.

B10: miR-155 mut / m11_23|+2|m2_7 (mixed)
RNA 1: UUCGUGCUAAUCGUGAUAGGGGU
RNA 2: UUUUACCCCUAUCACGACCUUUGCACGAUUUU
modifications: 5'-phosphate guide
For the molecule B10, in series [5] (g11-23 and g2-7 paired), the Kd is < 0.005 nM.

B11: miR-155 mut / m11_23|+2|m2_3 (mixed)
RNA 1: UUCGUGCUAAUCGUGAUAGGGGU
RNA 2: B10 RNA 2 with G23U, C24U, A25U, C26U
modifications: 5'-phosphate guide
Take B11: the binding result in series [6] (g11-23 and g2-3 paired) is listed as “binds”.

B12: miR-155 mut / m11_23|+2|m2_4 (mixed)
RNA 1: UUCGUGCUAAUCGUGAUAGGGGU
RNA 2: B10 RNA 2 with G23U, C24U, A25U
modifications: 5'-phosphate guide
On to B12, for which the binding result in series [6] (g11-23 and g2-4 paired) is “binds”.

B13: miR-155 mut / m11_23|+2|m2_8 (mixed)
RNA 1: UUCGUGCUAAUCGUGAUAGGGGU
RNA 2: B10 RNA 2 with U22A
modifications: 5'-phosphate guide
In the case of B13, the Kd in series [5] (g11-23 and g2-8 paired) is < 0.005 nM.

B14: let-7a / m11_22 (also labelled m10_22) (mixed)
RNA 1: UGAGGUAGUAGGUUGUAUAGUU
RNA 2: UUUUUAACUAUACAACCUUUUUUUUUUUUUUU
modifications: 5'-phosphate guide
Take B14: in series [7] (g11-22 paired), the Kd is ~0.4 nM.

B15: miR-124 mut / 7mer-m8 (mixed)
RNA 1: UCUGGCUCGCGGUGAAUGCCAA
RNA 2: UUUUUUUUUUUGAGCCAGUUUUUU
modifications: 5'-phosphate guide
B15: the binding result in series [8] is given as “binds”.

B16: miR-155 mut / m11_23 (mixed)
RNA 1: UUCGUGCUAAUCGUGAUAGGGGU
RNA 2: UUUUUUACCCCUAUCACGACCUUUUUUUUUUUUUUU
modifications: 5'-phosphate guide
In the case of B16, the Kd in series [3] (label: 32P target, g11-23 paired) is ~0.0265 nM.

B17: miR-155 wt / m11_23 (mixed)
RNA 1: UUAAUGCUAAUCGUGAUAGGGGU
RNA 2: B16 RNA 2
modifications: 5'-phosphate guide
As for B17, in series [3] (g11-23 paired), the Kd is ~0.0265 nM. Besides, the binding result in series [4] (guide:target, g11-23 paired) is given as “binds”.

B18: miR-124 wt / m9_22|+3|m1_8 (mixed)
RNA 1: UAAGGCACGCGGUGAAUGCCAA
RNA 2: UUUUUUUUGGCAUUCACCGCUUUGUGCCUUAUUUUUUUUU
modifications: 5'-phosphate guide
As to B18, the binding result in series [4] (label: 32P guide, g9-22 and g1-8 paired, offset +3) is “binds”.

B19: miR-124 wt / 7mer-m8 (mixed)
RNA 1: UAAGGCACGCGGUGAAUGCCAA
RNA 2: UUUUUUUUUUUGUGCCUUUUUUUU
modifications: 5'-phosphate guide
On to B19, for which the binding result in series [8] is given as “binds”.

B20: miR-155 mut / m11_23|+2|m2 (mixed)
RNA 1: UUCGUGCUAAUCGUGAUAGGGGU
RNA 2: UUUUACCCCUAUCACGACCUUUUUUUUAUUUU
modifications: 5'-phosphate guide
With B20, the binding result in series [6] (g11-23 and g2 paired) is “binds”.

B21: miR-155 mut / m11_23|+2|m1_8 (mixed)
RNA 1: UUCGUGCUAAUCGUGAUAGGGGU
RNA 2: UUUUUUACCCCUAUCACGACCUUAGCACGAAUUUUUUUUU
modifications: 5'-phosphate guide
For the molecule B21, the Kd in series [5] (g11-23 and g1-8 paired) is < 0.005 nM.

B22: miR-155 wt / m11_23|+2|m1_8 (mixed)
RNA 1: UUAAUGCUAAUCGUGAUAGGGGU
RNA 2: B21 RNA 2 with C28U, G29U
modifications: 5'-phosphate guide
Take B22: the binding result in series [4] (label: 32P target (kon) or 32P guide (probing), g11-23 and g1-8 paired, offset +2) was “binds”.

B23: miR-124 mut / m11_18 (mixed)
RNA 1: UCUGGCUCGCGGUGAAUGCCAA
RNA 2: UUUUUUUUCAUUCACCUUUUUUUUUUUU
modifications: 5'-phosphate guide
As to B23, the binding result in series [2] (g11-18 paired) is listed as “no binding”.

B24: let-7a / 7mer-m8 (mixed)
RNA 1: UGAGGUAGUAGGUUGUAUAGUU
RNA 2: UUUUUUUUUUUUUUUUUUCUACCUCUUUUUUU
modifications: 5'-phosphate guide
For the molecule B24, the Kd in series [7] (label: 32P target, seed g2-8 paired) is < 0.005 nM.

B25: miR-124 wt / m9_19 (mixed)
RNA 1: UAAGGCACGCGGUGAAUGCCAA
RNA 2: UUUUUUGCAUUCACCGCUUUUUUUUUUUUUUU
modifications: 5'-phosphate guide
Regarding B25, in series [3] (setting [10]), the Kd was ~0.205 nM.

B26: miR-124 mut / m9_19 (mixed)
RNA 1: UCUGGCUCGCGGUGAAUGCCAA
RNA 2: B25 RNA 2
modifications: 5'-phosphate guide
Regarding B26, the Kd in series [3] (setting [10]) was ~0.205 nM.
